T1: ORF1_(53-152) (coiled-coil domain of ORF1) (human, UniProt Q9UN81 53-152)
T1 construct: Non-labeled in the NMR experiments; also called full-length coiled-coil domain; trimeric coiled-coil domain; source: E. coli BL21STAR(DE3), purified (Ni-NTA, Sephacryl S-300 gel filtration)
T1 sequence (looked up): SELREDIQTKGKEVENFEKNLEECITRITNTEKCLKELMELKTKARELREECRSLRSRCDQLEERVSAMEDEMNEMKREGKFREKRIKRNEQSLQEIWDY


Assays:
[1] = molecular target: T1, ORF1_(53-152) (coiled-coil domain of …); assay: NMR titration; 15N-1H HSQC and 15N relaxation of the 15N-enriched N-terminal construct with non-labeled coiled-coil construct added (equimolar, 700 uM each in Fig. 3C); 25 °C; 20 mM HEPES pH 7.25 or 20 mM MES pH 6.0, 200 mM NaCl, 1 mM DTT; conditions: both partners purified
[2] = molecular target: the molecule itself; assay: SEC; gel filtration, GE HiPrep 16/60 Sephacryl S-300 HR, 20 mM Tris pH 8.0, 1 M NaCl, 1 mM DTT; self-association (trimer)

Binder	binding result [1]	stoichiometry N [2]
ORF1_(1-53) (disordered N-terminal region of ORF1) (domain or fragment, human, UniProt Q9UN81 1-53, looked up, LINE-1 ORF1 protein, human, residues 1-53; 15N (and for assignment 13C) isotope enriched for NMR; also called N-terminus; N-terminal region (1-53); source: E. coli BL21STAR(DE3), purified (Ni-NTA, heat 70°C, gel filtration); not shown: histidine tag, C-terminal, kept) MGKKQNRKTGNSKTQSASPPPKERSSSPATEQSWMENDFDELREEGFRRSNYS	binds	
MGKKQNRKTGNSKTQSASPPPKERSSSPATEQSWMENDFDELREEG (domain or fragment, human, UniProt Q9UN81 1-46, looked up, LINE-1 ORF1 protein, human, residues 1-46; Observed by 15N-1H HSQC, so isotope enriched; also called truncated ORF1_(1-46) construct; source: E. coli BL21STAR(DE3), purified (Ni-NTA, gel filtration)) [ORF1_(1-46)]	binds	
ORF1_(1-131) (domain or fragment, human, UniProt Q9UN81 1-131, looked up, LINE-1 ORF1 protein, human, residues 1-131 (N-terminus and coiled-coil domain lacking the C-terminal 22 residues); source: E. coli BL21STAR(DE3), purified (Ni-NTA, gel filtration)) MGKKQNRKTGNSKTQSASPPPKERSSSPATEQSWMENDFDELREEGFRRSNYSELREDIQTKGKEVENFEKNLEECITRITNTEKCLKELMELKTKARELREECRSLRSRCDQLEERVSAMEDEMNEMKRE		3
ORF1_(1-141) (domain or fragment, human, UniProt Q9UN81 1-141, looked up, LINE-1 ORF1 protein, human, residues 1-141 (N-terminus and coiled-coil domain lacking the C-terminal 12 residues); source: E. coli BL21STAR(DE3), purified (Ni-NTA, gel filtration)) MGKKQNRKTGNSKTQSASPPPKERSSSPATEQSWMENDFDELREEGFRRSNYSELREDIQTKGKEVENFEKNLEECITRITNTEKCLKELMELKTKARELREECRSLRSRCDQLEERVSAMEDEMNEMKREGKFREKRIKR		3
full-length ORF1_(1-338) protein (LINE-1 ORF1 protein) (natural protein, human, UniProt Q9UN81 1-338, looked up, LINE-1 (L1) ORF1 protein, human, residues 1-338, 40 kDa; No tag removal is described; The histidine tag is only named in the legends for ORF1_(1-53); also called L1 ORF1 protein; wild-type ORF1; source: E. coli BL21STAR(DE3), purified (Ni-NTA, Sephacryl S-300 gel filtration)) MGKKQNRKTGNSKTQSASPPPKERSSSPATEQSWMENDFDELREEGFRRSNYSELREDIQTKGKEVENFEKNLEECITRITNTEKCLKELMELKTKARELREECRSLRSRCDQLEERVSAMEDEMNEMKREGKFREKRIKRNEQSLQEIWDYVKRPNLRLIGVPESDVENGTKLENTLQDIIQENFPNLARQANVQIQEIQRTPQRYSSRRATPRHIIVRFTKVEMKEKMLRAAREKGRVTLKGKPIRLTADLSAETLQARREWGPIFNILKEKNFQPRISYPAKLSFISEGEIKYFIDKQMLRDFVTTRPALKELLKEALNMERNNRYQPLQNHAKM		3
